Reference: ChEMBL document CHEMBL3758119, “Functionalized imidazolium and benzimidazolium salts as paraoxonase 1 inhibitors: Synthesis, characterization and molecular docking studies” (Bioorg Med Chem, 2016)

Substrate: CCCCn1cc[n+](Cc2cc(=O)oc3cc(C)cc(C)c23)c1
Conditions: Homo sapiens
Description: Activity of human serum PON1 using paraoxon as substrate by Lineweaver-Burk plot analysis

B1: Serum paraoxonase/arylesterase 1 (Homo sapiens), P27169 (protein)
chain: MAKLIALTLLGMGLALFRNHQSSYQTRLNALREVQPVELPNCNLVKGIETGSEDLEILPNGLAFISSGLKYPGIKSFNPNSPGKILLMDLNEEDPTVLELGITGSKFDVSSFNPHGISTFTDEDNAMYLLVVNHPDAKSTVELFKFQEEEKSLLHLKTIRHKLLPNLNDIVAVGPEHFYGTNDHYFLDPYLQSWEMYLGLAWSYVVYYSPSEVRVVAEGFDFANGINISPDGKYVYIAELLAHKIHVYEKHANWTLTPLKSLDFNTLVDNISVDPETGDLWVGCHPNGMKIFFYDSENPPASEVLRIQNILTEEPKVTQVYAENGTVLQGSTVASVYKGKLLIGTVFHKALYCEL
**Q.** B1 was tested. Which Km did it give?
**A.** Its Km is 40.6 µM.
